Among the data in patent US20170165339A1 (IMMATICS BIOTECHNOLOGIES, published 2017) are peptide exchange yield values, retold here.

For the assay, the target named is HLA-A*02 (human). Kind of assay: UV peptide-exchange ELISA, yield grade. (In an ELISA, binding on a coated surface is turned into a signal by an enzyme label.)
Molecule VLIDPQWVLTA [VLIDPQWVLTA (SEQ ID NO: 40)] yielded a peptide exchange yield of 50 to 75%.

FLAVGLVDV [FLAVGLVDV (SEQ ID NO: 69)] had a peptide exchange yield of 50 to 75%.

The molecule KMVGLVVAI [KMVGLVVAI (SEQ ID NO: 53)] yielded a peptide exchange yield of 50 to 75%.

As to YLDLSHNQL [YLDLSHNQL (SEQ ID NO: 15)], the peptide exchange yield was in the range of 50 to 75%.

Regarding ILAPFSVDL [ILAPFSVDL (SEQ ID NO: 37)], the peptide exchange yield lay within 50 to 75%.

Molecule YTLDIPVLFGV [YTLDIPVLFGV (SEQ ID NO: 16)] returned a peptide exchange yield of at least 75%.

With ALLERGELFV [ALLERGELFV (SEQ ID NO: 47)], the peptide exchange yield was 50 to 75%.

The molecule SLFPDSLIV [SLFPDSLIV (SEQ ID NO: 64)] displayed a peptide exchange yield of 20 to 49%.

As to FLVDGSYSI [FLVDGSYSI (SEQ ID NO: 9)], the peptide exchange yield was 50 to 75%.

Molecule TVFTDHMLTV [TVFTDHMLTV (SEQ ID NO: 57)] had a peptide exchange yield of 20 to 49%.

Molecule KLMPGTYTL [KLMPGTYTL (SEQ ID NO: 4)] came in with a peptide exchange yield of at least 75%.

Take ALSPSYLTV [ALSPSYLTV (SEQ ID NO: 11)]: the peptide exchange yield lay within 50 to 75%.

The molecule FVDPNTQEKV [FVDPNTQEKV (SEQ ID NO: 22)] showed a peptide exchange yield of 20 to 49%.

In turn, TLFGYSVVL [TLFGYSVVL (SEQ ID NO: 74)] gave a peptide exchange yield of 50 to 75%.

On to FLLPFSTVYL [FLLPFSTVYL (SEQ ID NO: 35)], for which the peptide exchange yield lay in the range of 50 to 75%.

LLLGDSALYL [LLLGDSALYL (SEQ ID NO: 70)] returned a peptide exchange yield of 50 to 75%.

As to YTLREVDTV [YTLREVDTV (SEQ ID NO: 73)], the peptide exchange yield is 20 to 49%.

As for RLMEENWNA [RLMEENWNA (SEQ ID NO: 27)], the peptide exchange yield was 50 to 75%.

Molecule ALQEELTEL [ALQEELTEL (SEQ ID NO: 26)] returned a peptide exchange yield of 50 to 75%.

Molecule TITETTVEV [TITETTVEV (SEQ ID NO: 31)] returned a peptide exchange yield of 50 to 75%.

For FLLATEVVTV [FLLATEVVTV (SEQ ID NO: 34)], the peptide exchange yield is at least 75%.

With ALNIATHVL [ALNIATHVL (SEQ ID NO: 49)], the peptide exchange yield lay within 50 to 75%.

With AMIEEVFEA [AMIEEVFEA (SEQ ID NO: 30)], the peptide exchange yield was 20 to 49%.

SVVPDVRSV [SVVPDVRSV (SEQ ID NO: 65)] gave a peptide exchange yield of 20 to 49%.

As for SLFSDEFKV [SLFSDEFKV (SEQ ID NO: 23)], the peptide exchange yield fell in the range of 50 to 75%.

For the molecule LLDSVSRL [LLDSVSRL (SEQ ID NO: 42)], the peptide exchange yield was under 20%.

On to YLLPLLPAL [YLLPLLPAL (SEQ ID NO: 58)], for which the peptide exchange yield was in the range of 50 to 75%.

HLLEGSVGV [HLLEGSVGV (SEQ ID NO: 39)] gave a peptide exchange yield of 50 to 75%.

In turn, ALMAMLVYV [ALMAMLVYV (SEQ ID NO: 13)] returned a peptide exchange yield of 20 to 49%.

Regarding SLSNRLYYL [SLSNRLYYL (SEQ ID NO: 68)], the peptide exchange yield lay within 50 to 75%.

The molecule ILDHEVPSL [ILDHEVPSL (SEQ ID NO: 7)] gave a peptide exchange yield of 50 to 75%.

On to ALFENTPKA [ALFENTPKA (SEQ ID NO: 41)], for which the peptide exchange yield lay in the range of 20 to 49%.

Turning to TLDEKVAEL [TLDEKVAEL (SEQ ID NO: 24)], the peptide exchange yield is 50 to 75%.

Regarding AIQDEIRSV [AIQDEIRSV (SEQ ID NO: 21)], the peptide exchange yield was in the range of 50 to 75%.

Take SQIPAQPSV [SQIPAQPSV (SEQ ID NO: 63)]: the peptide exchange yield was 20 to 49%.

QVIEDSTGV [QVIEDSTGV (SEQ ID NO: 48)] came in with a peptide exchange yield of 20 to 49%.

Regarding SLATKIVEA [SLATKIVEA (SEQ ID NO: 55)], the peptide exchange yield was 50 to 75%.

With TMDSVLVTV [TMDSVLVTV (SEQ ID NO: 25)], the peptide exchange yield was 50 to 75%.

LLYPEPWSV [LLYPEPWSV (SEQ ID NO: 1)] yielded a peptide exchange yield of at least 75%.

In turn, LLFSRLCGA [LLFSRLCGA (SEQ ID NO: 51)] returned a peptide exchange yield of at least 75%.

KLLDPQEFTL [KLLDPQEFTL (SEQ ID NO: 59)] displayed a peptide exchange yield of 50 to 75%.

Molecule YLLDPSITL [YLLDPSITL (SEQ ID NO: 29)] came in with a peptide exchange yield of 50 to 75%.

Consider FLHDEKEGIYI [FLHDEKEGIYI (SEQ ID NO: 56)], for which the peptide exchange yield lay in the range of 50 to 75%.

SLPNGKPVSV [SLPNGKPVSV (SEQ ID NO: 28)] gave a peptide exchange yield of 50 to 75%.

Regarding ALNPELVQA [ALNPELVQA (SEQ ID NO: 62)], the peptide exchange yield is 20 to 49%.

With GIVAHIQEV [GIVAHIQEV (SEQ ID NO: 5)], the peptide exchange yield was 50 to 75%.

In the case of SQFPLPLAV [SQFPLPLAV (SEQ ID NO: 46)], the peptide exchange yield lay in the range of 20 to 49%.

Molecule YIKTELISV [YIKTELISV (SEQ ID NO: 33)] displayed a peptide exchange yield of 50 to 75%.

In the case of KLIFSVEAV [KLIFSVEAV (SEQ ID NO: 66)], the peptide exchange yield fell in the range of 50 to 75%.

In turn, GLLPLLHRA [GLLPLLHRA (SEQ ID NO: 12)] came in with a peptide exchange yield of at least 75%.

With FLGPRIIGL [FLGPRIIGL (SEQ ID NO: 38)], the peptide exchange yield fell in the range of 50 to 75%.

Take GIAGSLKTV [GIAGSLKTV (SEQ ID NO: 10)]: the peptide exchange yield is 50 to 75%.

SISDNVWEV [SISDNVWEV (SEQ ID NO: 19)]: the peptide exchange yield lay within 50 to 75%.

The molecule VQLDSIEDLEV [VQLDSIEDLEV (SEQ ID NO: 32)] registered a peptide exchange yield of 50 to 75%.

For ILLDLTDNRL [ILLDLTDNRL (SEQ ID NO: 18)], the peptide exchange yield was 50 to 75%.

Turning to VLNPLITAV [VLNPLITAV (SEQ ID NO: 54)], the peptide exchange yield was in the range of 50 to 75%.

The molecule FLTAINYLL [FLTAINYLL (SEQ ID NO: 72)] gave a peptide exchange yield of 50 to 75%.

Molecule KLEENGDLYL [KLEENGDLYL (SEQ ID NO: 3)] yielded a peptide exchange yield of at least 75%.

Molecule VLHSKFWVV [VLHSKFWVV (SEQ ID NO: 71)] displayed a peptide exchange yield of 50 to 75%.

Molecule TLLQRLTEV [TLLQRLTEV (SEQ ID NO: 67)] displayed a peptide exchange yield of 50 to 75%.

ILAKDLFEI [ILAKDLFEI (SEQ ID NO: 14)]: the peptide exchange yield is at least 75%.

For SLADTNSLAVV [SLADTNSLAVV (SEQ ID NO: 36)], the peptide exchange yield fell in the range of 50 to 75%.

In turn, AIVKEIVNI [AIVKEIVNI (SEQ ID NO: 61)] yielded a peptide exchange yield of 20 to 49%.

As to ILFHGVFYA [ILFHGVFYA (SEQ ID NO: 50)], the peptide exchange yield was in the range of 50 to 75%.

ALFDSLRHV [ALFDSLRHV (SEQ ID NO: 6)]: the peptide exchange yield is 50 to 75%.

In turn, SLFETAWEA [SLFETAWEA (SEQ ID NO: 44)] displayed a peptide exchange yield of 50 to 75%.

For the molecule GLSQITNQL [GLSQITNQL (SEQ ID NO: 20)], the peptide exchange yield is 50 to 75%.

The molecule ALFAPLVHL [ALFAPLVHL (SEQ ID NO: 60)] returned a peptide exchange yield of 50 to 75%.

Regarding AVIKFLELL [AVIKFLELL (SEQ ID NO: 75)], the peptide exchange yield was 50 to 75%.
